According to patent publication US20050208042A1 (GENETICS INSTITUTE, published 2005):
Values belong to the binder of their own block, whether it stands above or below them.

Columns and labels:
[1] = biological target: T1, human B7-1 (CD80) expressed on the cell surface (CHO/hB7-1 cells) (human, UniProt P33681 35-288); assay: cell-based or functional assay
T1 sequence (looked up): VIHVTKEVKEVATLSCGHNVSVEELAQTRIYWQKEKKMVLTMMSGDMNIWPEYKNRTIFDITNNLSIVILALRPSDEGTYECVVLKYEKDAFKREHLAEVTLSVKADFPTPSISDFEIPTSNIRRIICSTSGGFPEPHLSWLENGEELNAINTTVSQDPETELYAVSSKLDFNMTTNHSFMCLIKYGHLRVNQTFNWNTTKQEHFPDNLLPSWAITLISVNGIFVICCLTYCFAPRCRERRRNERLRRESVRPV

[2] = biological target: T1, human B7-1 (CD80) expressed on the cell …; assay: competitive binding against 125I-murine anti-B7-1 on CHO/hB7-1 cells; humanized anti-B7-1 mAb
Description: (§1) The relative affinities of the murine and humanized anti-B7-1 (1F1) antibodies for the B7-1 antigen were determined by competitive binding assays. Three-fold serial dilutions of the unlabeled murine or humanized anti-B7-1 mAbs were mixed with a fixed amount of radio-labeled murine anti-B7-1 mAb (¹²⁵I-anti-B7-1, 2800 cpm/fmol; 40,000-50,000 cpm/test in PBS containing 2% fetal calf serum). 1×10⁵ CHO/hB7-1 cells expressing hB7-1 on their surface were added subsequently and the mixture (total volume=200 μL) incubated for 2 hrs at 4° C. with gentle shaking. The cell antibody mixture was then transferred to Sarstedt Micro tubes (Part # 72.702) containing 100 μL of 80% dibutyl phthlate-20% olive oil. After centrifugation in a microfuge, the Sarstedt tubes were plunged into dry ice for several minutes. Cell bound ¹²⁵I-labeled mAb was determined by clipping the cell pellet containing tips of each tube into scintillation vials and counting in a gamma counter. Bound and free counts were determined. The bound counts were plotted against the concentration of the cold competitor mAbs.

[3] = biological target: T2, human B7-1Ig (recombinant soluble hB7-1Ig) (human, UniProt P33681 35-242); assay: SPR (BIACORE), hB7-1Ig immobilized, bivalent model, mean of three runs
T2 construct: extracellular domain; Secreted by CHO cells, purified on protein A, immobilized on the BIACORE chip; not shown: hinge-CH2-CH3 domains of human IgG1 heavy chain
T2 sequence (looked up): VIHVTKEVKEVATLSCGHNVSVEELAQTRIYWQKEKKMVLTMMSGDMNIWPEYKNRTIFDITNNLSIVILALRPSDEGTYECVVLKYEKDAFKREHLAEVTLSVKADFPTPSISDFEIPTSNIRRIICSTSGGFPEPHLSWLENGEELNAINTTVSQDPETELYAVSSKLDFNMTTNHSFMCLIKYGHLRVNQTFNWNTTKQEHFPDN
Description: (§2) The BIACORE® biosensor (BIACORE®, Uppsalla, Sweden) was used to determine binding kinetics of murine and humanized anti-B7-1 monoclonal antibodies to human B7-1Ig (hB7-1Ig) protein. Human B7-1Ig was immobilized onto the dextran matrix of a BIACORE® sensor chip. Humanized and murine anti-B7-1 mAbs were tested at 200, 100, 50, and 20 nM on the immobilized hB7-1Ig. Each mAb dilution was tested 4 times per run and a total of three separate runs were performed. Anti-human B7-1Ig binding was measured in real time by Surface Plasmon Resonance (SPR) and global analysis was performed using the bivalent binding model in BIA evaluation software (Version 3.1). For each sample, the association (kₐ) dissociation (kd) and equilibrium dissociation constant (KD) were determined.

[4] = biological target: T3, human B7-2 (CD86) expressed on the cell surface (CHO/hB7-2 cells) (human, UniProt P42081 24-329); assay: 125I direct binding, CHO cells expressing hB7-2 as control for non-specific binding
T3 construct: whole, on cells; Also used for native B7-2 on human PBL in the MLR row under functional; also called rhB7-2
T3 sequence (looked up): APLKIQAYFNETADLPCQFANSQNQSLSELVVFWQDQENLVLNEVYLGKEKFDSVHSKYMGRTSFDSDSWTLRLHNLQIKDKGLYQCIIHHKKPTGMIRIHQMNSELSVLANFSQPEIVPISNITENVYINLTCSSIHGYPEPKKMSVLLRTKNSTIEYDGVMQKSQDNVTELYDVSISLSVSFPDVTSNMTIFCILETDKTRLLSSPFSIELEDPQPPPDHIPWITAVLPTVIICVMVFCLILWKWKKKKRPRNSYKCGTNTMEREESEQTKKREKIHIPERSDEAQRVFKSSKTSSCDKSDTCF

[5] = biological target: T1, human B7-1 (CD80) expressed on the cell …; assay: competition binding on CHO/hB7-1 cells: unlabeled competitor against 125I-murine anti-B7-1 tracer, bound cpm
Description: as §1

[6] = biological target: T1, human B7-1 (CD80) expressed on the cell …; assay: direct binding of 125I-labeled antibody to CHO/hB7-1 cells, nonspecific binding (CHO cells with hB7-2) subtracted
Description: Binding assays were begun by plating CHO/hB7-1 cells onto 96 well tissue culture plates at 10,000 cells/well in complete medium and the plates incubated at 37° C. for two days. Adherent cells were washed gently with assay buffer (PBS containing nonfat dry milk and sodium azide). Murine and humanized anti-B7-1 mAbs labeled with ¹²⁵I were serially diluted in assay buffer and incubated with the cells overnight at 4° C. to allow biding to reach equilibrium. Unbound labeled antibody was removed from the cells by a series of gentle washings with assay buffer and the bound ¹²⁵I-labeled antibody was detected using a ¹²⁵I scintillant and detector system. Non-specific binding was determined for each dilution of labeled antibody in an identical manner as described above except that the target CHO cells expressed hB7-2 which is not bound by either the murine or humanized anti-B7-1 mAbs.
The mean value of triplicate determinations minus the non-specific binding was calculated and fit to a hyperbolic saturation binding curve using Graphpad Prism software. […] Both murine and humanized anti-B7-1 mAbs recognize cell surface expressed human B7-1.

[7] = biological target: T1, human B7-1 (CD80) expressed on the cell …; assay: competition binding on CHO cells expressing rhB7-1: unlabeled competitor against 125I-humanized 1F1 tracer, bound/free ratio
Description: (§3) The affinity of the mouse and humanized 1F1 antibodies for the B7-1 antigen was determined by competitive binding with radio-iodinated humanized 1F1 antibody. Three-fold serial dilutions of unlabeled mouse or humanized 1F1 antibodies were mixed with a fixed amount of radio-iodinated humanized 1F1 antibody (40,000-50,000 cpm per test) in PBS containing 2% fetal calf serum, 0.1% sodium azide. 3×10⁴ CHO cells expressing cell surface rhB7-1 were added subsequently and the mixture (in a total volume of 200 μL) was incubated for 2 hr at 4° C. with gentle shaking. The cell-antibody suspension was then transferred to Sarstedt Micro Tubes (part #72.702) containing 100 μL of 80% dibutyl phthalate-20% olive oil. After centrifugation in a microfuge, the Sarstedt tubes were plunged into dry ice for several minutes. Cell-bound ¹²⁵I was determined by clipping the tips of each tube (containing cell pellets) into scintillation vials and counting in a gamma counter. Bound and free counts were determined and the ratio plotted against the concentrations of the cold competitor antibodies according to the method of Berzofsky and Berkower (J. A. Berzofsky and I. J. Berkower, in Fundamental Immunology, W. E. Paul, Raven Press, New York, pp. 595-644 (1984)).

[8] = biological target: T2, human B7-1Ig (recombinant soluble …); assay: SPR (BIACORE), hB7-1Ig immobilized
Description: as §2

[9] = biological target: T1, human B7-1 (CD80) expressed on the cell …; assay: competitive binding against 125I-murine anti-B7-1 on CHO/hB7-1 cells; murine anti-B7-1 mAb
Description: as §1

[10] = biological target: T1, human B7-1 (CD80) expressed on the cell …; assay: competitive binding against 125I-humanized 1F1 on CHO cells expressing rhB7-1
Description: as §3

- IC50 of inhibition of CD28+ human T cell proliferation stimulated with PMA and CHO/hB7-1 cells [1]: 0.11 nM
- Kd [2]: ~1 nM
- Kd [3]: 2.8 nM
- binding result [4]: no binding
- IC50 (read off the curve) [5]: ~2 nM
- EC50 (read off the curve) [6]: ~1 nM
B1: humanized anti-B7-1 mAb (humanized 1F1), isotype not stated in the example (antibody, V domains shown)
VH: EVQLVQSGAEVKKPGASVKVSCKPSGFNIKDYYMHWVRQAPGQGLEWIGWIDPENGNTLYDPKFQGKATITADTSTSTAYMELSSLRSEDTAVYYCAREGLFFAYWGQGTLVTVSS
VL: DIQMTQSPSSLSASVGDRVTITCSVSSSISSSNLHWYQQKPGKAPKPLIYGTSNLASGVPSRFSGSGSGTDYTLTISSLQPEDVATYYCQQWSSYPLTFGQGTKVEIK
notes: Same variable regions as m8; also called hu1F1

- IC50 (read off the curve) [7]: ~1 nM
- IC50 of inhibition of CD28+ human T cell proliferation stimulated with PMA and CHO/hB7-1 cells [1]: 0.22 nM
- fold higher binding affinity than the humanized anti-B7-1 mAb [8]: 5 fold
- Kd [9]: ~1 nM
- Ka [10]: ~1e+09 M⁻¹
- Kd [3]: 0.56 nM
- binding result [4]: no binding
- IC50 (read off the curve) [5]: ~1 nM
B2: murine 1F1 monoclonal antibody (murine anti-human B7-1 mAb) (antibody, V domains shown)
VH: EVHLQQSGAELVRPGALVKLSCKPSGFNIKDYYMHWVKQRPEQGLEWIGWIDPENGNTLYDPKFQGKASITADTSSNTAYLQLSSLTSEDTAVYYCAREGLFFAYWGQGTPVTVSA
VL: EIVLTQSPALMAASPGEKVTITCSVSSSISSSNLHWYQQKSETSPKPWIYGTSNLASGVPVRFSGSGSGTSYSLTISSMEAEDAATYYCQQWSSYPLTFGAGTKLELK
notes: Hybridoma mouse antibody with kappa light chain; also called mouse 1F1; murine anti-B7-1
